Data published in paper PMC2806001.

Biological target: T1, Peroxiredoxin 1 (Prx1) WT, recombinant (mouse), P35700
T1 chain: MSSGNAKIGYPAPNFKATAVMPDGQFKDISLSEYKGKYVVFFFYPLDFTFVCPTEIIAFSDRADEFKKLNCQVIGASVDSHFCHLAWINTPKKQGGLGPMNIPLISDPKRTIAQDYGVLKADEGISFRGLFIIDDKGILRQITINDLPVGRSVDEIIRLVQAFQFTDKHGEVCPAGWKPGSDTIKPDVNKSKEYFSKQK
Assay: native gel or EMSA; BN-PAGE of purified recombinant proteins incubated for 1 hour at room temperature (20 μg p66CH2CB with 40 μg Prx1 WT or 20 μg Prx1-Cys83Ser); bands cut out and separated in a second, denaturing SDS-PAGE dimension
Settings: remark: other sources report otherwise

stoichiometry N: 10
B1: Peroxiredoxin 1 (Prx1) WT, recombinant, P35700 1-199 (enzyme)
chain: T1 chain
